Data taken from patent US20210340232A1, “MONOCLONAL ANTIBODIES AGAINST HUMAN DICKKOPF3 AND USES THEREOF” (Board of Regents, The University of Texas System, priority 2018, published 2021).

Tested on: Pdx1-Cre GEMM model of PDAC
Assay: Survival in Pdx1-Cre GEMM model of PDAC
Assay type: in vivo, mouse
Settings: 5 mg/kg i.p. q5d
Method: FIGS. 12A-D. DKK3 expression in mouse PSCs and effects of treatment with DKKC mAb on survival. (FIG. 12A) Western blot analysis of recombinant human and mouse DKK3 under denaturing and non-denaturing conditions using JM6-6-1 mAb. (FIG. 12B) Expression of murine DKK3 in murine PSCs (MPSC) or 3T3 cells was determined by RT-PCR. 18S was used as loading control. (FIG. 12C) Proliferation of MPSCs treated with DKK3 mAb was measured at 7 days by MTS assay. ***p<0.001 vs. PBS. (FIG. 12D) Pdx1-Cre; Kras LSL-G12D;Trp53fl/+ model of PDAC was treated with DKK3 mAb JM6-6-1 or control mAb JM4-74 (5 mg/kg i.p. q5d). Kaplan-Meier survival curves are shown (log rank test). At 0% survival, the right line is JM6-6-1, the middle lines is PBS, and the left line is Control Ab.
Two GEMMs of PDAC that differ in the pancreas-specific promoter to target oncogenic Kras expression (Hingorani et al., 2005; Hingorani et al., 2003) were used in the experiments to evaluate the effect of DKK3 neutralizing mAb (Pdx1-Cre; Kras^LSL-G12D; Trp53^R172H/+ and P48-Cre; Kras^LSL-G12D; Trp53^fl/fl). To evaluate the effects of genetic ablation of DKK3 on pancreatic cancer development, DKK3-null mice were crossed to P48-Cre; Kras^LSL-G12D;Trp53^R172H or P48-Cre; Kras^LSL-G12D; Trp53^fl/fl mice (Hingorani et al., 2005; Hingorani et al., 2003), and the progeny were monitored until they were moribund. […]

B1: JM6-6-1: monoclonal antibody against human DKK3; heavy chain variable SEQ ID NO: 19, light chain variable SEQ ID NO: 20 (antibody, V domains shown)
VH: EVKLVESGGGLVKPGGSLKLSCAASGFTFTIEYMAWIRQTPEKRLEWVASISSGGDDIYYADNVKGRFTISRDNAKNTLYLQMSSLKSEDTAIYYCSRSLSDWGQGTTLTVSSAKTTPPSDYPLA
VL: MTQTPLSLPVSLGDQASISCRSSQSILHSNGHTYLEWYLQKPGQSPKLLIYKVSNRFSGVPDRFSGSGSGTDFTLKISRVEAEDLGVYYCFQGSHVPFTFGSGTKLEIERADAAQ
- effect on survival: equally effective
